The DeepSol protein solubility set

test: soluble on expression in E. coli; label from the status in PepcDB or PDB records

Sequence | soluble on expression in E. coli
MEAHGSARLSRKRKRDGSNGEPEEGEKPLKFKRCTVGLKYPAPYADQLESMEDKQYQRVTIEEARRGTPPDRPVRVYADGIFDMFHSGHARALMQAKCLFPNTHLIVGVCSDDLTHKLKGFTVMNEDERYDAVSHCRYVDEVVRNAPWTLTPEFLTKHRIDFVAHDDIPYSSADSDDVYKHIKDAGMFAPTQRTEGISTSDIITRIVRDYDVYVRRNLQRGYTAKELNVSFINEKKYNLQERVDKVKKKVKDVEEKSKEFVQKVEEKSIDLIQKWEEKSREFIGNFLQMFGPEGALKHMLKEGKGRMLQAISPRQSPSSSPTRERSPSPTFRLPFFNKTSTPSSPSSHHSSALSGYTYAARGQAISEDEEDDED | soluble
MNLLVTSSLGVLLHLVVLCQADDHSELLVNTKSGKVMGTRVPVLSSHISAFLGIPFAEPPVGNMRFRRPEPKKPWSGVWNASTYPNNCQQYVDEQFPGFSGSEMWNPNREMSEDCLYLNIWVPSPRPKSTTVMVWIYGGGFYSGSSTLDVYNGKYLAYTEEVVLVSLSYRVGAFGFLALHGSQEAPGNVGLLDQRMALQWVHDNIQFFGGDPKTVTIFGESAGGASVGMHILSPGSRDLFRRAILQSGSPNCPWASVSVAEGRRRAVELGRNLNCNLNSDEELIHCLREKKPQELIDVEWNVLPFDSIFRFSFVPVIDGEFFPTSLESMLNSGNFKKTQILLGVNKDEGSFFLLYGAPGFSKDSESKISREDFMSGVKLSVPHANDLGLDAVTLQYTDWMDDNNGIKNRDGLDDIVGDHNVICPLMHFVNKYTKFGNGTYLYFFNHRASNLVWPEWMGVIHGYEIEFVFGLPLVKELNYTAEEEALSRRIMHYWATFAKTGNPNEPHSQESKWPLFTTKEQKFIDLNTEPMKVHQRLRVQMCVFWNQFLPKLLNATACDGELSSSGTSSSKGIIFYVLFSILYLIF | soluble
MTGMTNVTKLASEPSGQEFLVFTLGDEEYGIDILKVQEIRGYDQVTRIANTPAFIKGVTNLRGVIVPIVDLRIKFSQVDVDYNDNTVVIVLNLGQRVVGIVVDGVSDVLSLTAEQIRPAPEFAVTLSTEYLTGLGALGDRMLILVNIEKLLNSEEMALLDSAASEVA | soluble
MVLAGGVGKRLLPLTRERPKPYLPLAGKPLYMYAVEQVAMVRSLLDRAVMVTPPGHPTPPGSLPSWLDTVEQQGEGVEAGLATALKRLGGGEEVVVSFVGYLARPNTLVRHVLDFYSVTRYKLVLALAPVTRGSESFGFVDADPSTGRVLGFSGSREEWMAGRGRVFAGVLAGDPEALEVLAGEGFVEGINTLARRGLVGSVVWPGEWLEVGYPCDLLEAPRLVVEAWAAVISAKARVARSSVIQGGVVIEEDAEVGEGAVVEGPAYLGRGAVVGRNSVVGPGVVLEEGAVVGDLVSIERSVMLERAEASGPSRLEGVVIGDGAYIAPLAAATNREGCTVVAPKTRLGPRATLEPGKTYTLEHHHHHH | not soluble
MQALYQLSATGAQQQNQQIPIGLSNSLLYQQLAAHQQIAAQQHQQQLAVSAAHQTQNNIMLATSAPSLINHMENSTDGKVKDDPNSDYDLQLSIQQQLAAAAQAAQMGQTQIGPQIVGQQGQPVVATTAGSTNGSAAVTQPDPSTSSGPDGPKRLHVSNIPFRFRDPDLKTMFEKFGVVSDVEIIFNERGSKGFGFVTMERPQDAERARQELHGSMIEGRKIEVNCATARVHSKKVKPTGGILDQMNPLMAQSALAAQAQMNRALLLRSPLVAQSLLGRGAALIPGMQQPAFQLQAALAGNPLAQLQGQPLLFNAAALQTNALQQSAFGMDPAAVQAALLANEQARFQLAAAAAQGNEYIMYHQAKQQELPGRIPSSGNASAFGEQYLSNALATASLPSYQMNPALRTLNRFTPY | not soluble
MRKEDKGTVIRQLAKYIGQYPHFYLTDIEALNAEKTSELRRNCNKNGVKLVMVKNTLLRAALAASDVDFSSLYSCLKGNTAVMFCEVANSPAKVIKQFTKDTKGEGKPWLKAAYVQESFYIGRENLDALVSIKSKNELIADVVALLQSPAKNVIASLQSAGQTIHGVLKTLEEK | not soluble
GSMENTDVFLGLHDFLERMRKPSAGDFVKSIKSFIVSFSNNAPDPEKDCAMVQEFFSKMEAAFRAHPLWSGCSEEELDSAGDGLEKYVMTKLFTRVFASNTEEVIADEKLFQKMSLVQQFISPENLDIQPTFQNESSWLLAQKELQKINMYKAPRDKLVCILNCCKVINNLLLNASIASNENAPGADEFLPVLIYVTIKANPPQLHSNLLYIQRYRRESKLVGEAAYFFTNILSAESFISNIDAKSISLDEAEFEKNMESARARISG | soluble
SNAMIAKEFETFLLGQEETFLTPAKNLAVLIDTHNADHATLLLSQMTYTRVPVVTDEKQFVGTIGLRDIMAYQMEHDLSQEIMADTDIVHMTKTDVAVVSPDFTITEVLHKLVDESFLPVVDAEGIFQGIITRKSILKAVNALLHDFSKEYEIRCQ | soluble
MEGISKPMERYDSVVFAGMKQDGTIEFIKVYALNEDLAITILDQFLRENNLHPSDFVVIQRGLEDIKGKDIISTRTEEDLSAMLARLGLRLVSNGVLHTRGAEKIYQITAISKSLIERLQGEDKDKVSTIIKEEISIDFSNLKLPEKYMKKLLLLSLMEDTFILNRAELNVPEVIKRAVKGVVSIPRLIERDNIIIKVFDEELHTVQGSYLDRVIITPPVVHWDAHIDELDSFSFQEVEENVYEPPLFVKAMKGFLVLTEPPRDLVVMLLKLKRRGEVKVSLKGRQIRIPLNFTLVVDTKYPERYSGLKFPIRINLPPFDDETFAQMLSMVLGTKVPQDLVAMFPEEYKTFLGVEILSNLWKKLRKRGRKSEIELLKEMATIVTGGII | soluble
GPGSMTDFPKLNRIKSDDENMEKIHVAARKGQTDEVRRLIETGVSPTIQNRFGCTALHLACKFGCVDTAKYLASVGEVHSLWHGQKPIHLAVMANKTDLVVALVEGAKERGQMPESLLNECDEREVNEIGSHVKHCKGQTALHWCVGLGPEYLEMIKILVQLGASPTAKDKADETPLMRAMEFRNREALDLMMDTVPSKSSLRLDYANKQGNSHLHWAILINWEDVAMRFVEMGIDVNMEDNEHTVPLYLSVRAAMVLLTKELLQKTDVFLIQACPYHNGTTVLPDRVVWLDFVPAAADPSKQEVLQLLQEKLDEVVRSLNTGAGGAVKRKKKAAPAVKRMKLAPSAPVRTRSRSRARSSAVSK | soluble
MNEKELADSVFGGLMAKAMGKMVHESEICPLVDQIEGKGQTNEELQGLRLSLSDLLLRHPDKFINCGNRNWRLNQNNHAFQQLAESISDKKSGKGGKRSARGGSNLPSFNRARSGGIPRNHNQTHGFRQSAPAHRGHHRPPAGNHGSSFRPNLNISQPNPSNDYSKMTGLHYPVSRNVLASNNGSNSRFSNQPPRREDHHEKMIMRTPYRDPSPRRGNNYGDIRGRPDSRDGYNGDRDSTRYSSPRRNEQPGRPSSRGSNISDYSQFSSDTNAESNTERRSRPDASSPDLADLARRFNSSSINVQPQPLESVASSDVLSKKIAKAVRKIMKKLNEGEKLSLENLFDEIERKNKILIPGKNGKEKEDFLKDLKKIMPKLLSALTIDTETGDLTWNEAAVTTDSPIHEYMEDDLHYYVVDYVKMLDKARFRVTDEAERLSNATGVRMERTCEKLTYVLFITFEGEYRYASGSKTEVLKISKITTVGDAPEFYQTSFEHKIFENVPANALVKCGIVRYQNVQKFAVRPEEYIKPYEKMNQEIQDFMSQIRNEKSVPFEMWRPNHACLVQLNDSTTILKWSRAMIIKIETQLIFLFILDSGFRKVVPSSDLRLMPQKFAKLPPFAIPCTLDESEDDKDNIEFGGKEYLSNGPGNLSVTCSGAATASDGILTYPIKLFSTCHGGPLTNIKDVFI | not soluble
MPFRNAVQTASPPTTPKQKAHHDRIHVHPFGLGTHLCQRPLPHDQTVRRGRTQAQTFRTPHDRAGGRFRADRRSCLHPRIPCRIGTRSGLGVLCHSRLPVPDFCVSMFCVAVFLAHAQQGIDKHRNAV | not soluble
MSLSLEERERAVELYFTTPMTTAQVVEHLGYPTRQCLERWLAMDSRYAGHMAKPIIPLETRRRAVELVLGGMQQKQAAKQLGVSVGAVHGWVRAYRKGGMAALQPKNRNSAQGNKPADSRRRPSAADDDDAEALRRRVEELELENALMREVVEVVKKDPGADLRRLSNREKTLLIDRLRPAYSLRSMTCLLAIAPSSYHYHHARLGVDKYAGLRAEVAGAFADSKGRYGYRRIKAVLKTGVSEKVVRRIMAEEGLVAHVPKRRRYSSYEGETTPAPANLVDRDFTAERPNEKWLTDISEIKARDGKVYLSPMIDCFDGKIVAYTAGFSPNAELANRMLEKAASTLPGNARPLVHSDRGCHYRWPGWLGLMERFGLTRSMSAKGCSPDNAAAEGFFGRMKTESVYPEHWEKRTRDEVLILIDDYIRWYNHERIKRSLGWMSPVQYRQSQGMAEGHHHHHH | not soluble
SAAVALRDSAQGTVTFEDVAVNFSQEEWSLLSEAQRCLYHDVMLENLTLISSLGCWYGAKDETPSKQTLSIQQESPLRTHWTGVCTKKVHLWGMCGPLLGDILHQGTQHNQKLNGFGAYEKKLDDDANHHQDQKQHIGEKSYRSNAKENE | soluble
HYTSPTVIQAIYNAVEQMDFTPGTVLEPSMGIGNFFGMLPEKLAAAKLYGVELDDLTGRIARQLYQKADITVDGFERTDHPDDFFDLAVGNVPFGSYQVHDKRYDRQNLMIHDYFITKTLDKVRPGGIVAFITTKGTMDKKNSKAREALAQKADLLGAVRLPSNAFKANAGTEVTTDILFFQKRDRIPEKLPEWVEVGQTEDGIPLNRYFLDHPEMVLGTM | not soluble
MGSDKIHHHHHHMKKFLCFIMSVGLILSLVGCGKSGKTNIKVPAKSIDGKDSSISLDIMATNKFLYNVIKDISGNRHNVQFMFKNDIDVKQFDYTSDSINNVSKYNIFMYLGADFEPWASDFIGKLDKNSIATVDMSRGTKILNLDDKVQYGNITVEKNSYYWTDLNNYKTMLVNIKNSLEEKDPKSRDLYEKNFAAYIKKVNDCEKEFKGINDKLKGYTFVTNSSNFDYFFNYAGLDSVKVSEDELSKPDTSKELNDKLKDKEKICYIYSDDGSVQSNNAVIQKYKMKTLKFVTYDENSDYICIIKDNIKSMKELIK | not soluble
MYCDHFGFSEHPFALTPNPAFLFLSSRHQEAFAHLLYGIDTRAGFIELSGEVGTGKTTVIRTFLNQLDPETHRTALVFNPTVSPLGLLQGIIREFGLPGTSTEKSELLETLNRFLLDENRAGHTVVLVIDEAQNLSPEVLEQIRLISNLETERDKLIQIVLVGQPELRHLLARQELRQLDQRITVRYHLEPMGLDDTKNYIRHRIRIAAGGREPVIFSAGAVKKIFGFSGGLPRLINAACDRALLLAYTTEAREVSPAMAAAAIADVATEARPPSPSRRFAVAAALILVAALGAGTFAVTRKGGESLPSASPPPTEPAASGEQPLKRTAALAGLAAVPEKDNLSAAVNTILRSWQAPPVASSPSPADLRSLARERGLTVTELSGTLNDLARLDTPALLHITLPQGGKRLVALTSLDKGHIGIDPPIAGHSTLTGGELSTLWSGRASVIWKNFHGIPSRLKPGGRSKAVGQLQELLKGAGYYAGRISGTYDTVTQEAIRSFQTAEGLDADGRTGEKTLLLLYRRAGGFFPPGLTQGKTAARTEAGDRSRGKVAQTRSNGEQSRLEHHHHHH | not soluble
MTAQTHNDVAVCWNQNANQWTSDVRNGYDVYRDFFTLPAFLQFLPTMADLNVIDFGCGEGSNTRHFAQMGAKVVGIDISNGLIEHARQAERVDPVGITYKIVSYSSDTGFPASSFDAVVSTMALMDGPDLQGAMHEAYRLLRPGGFVAFSVLHPCFITPGWQWQKDENGQTTGLCTSRYFDKSGFTENWKFGNRPKDENVAPFAVPRFPRTIGDYINAVASVGFRISKIEEPQPTEEACKAIPQLRRWRDLGAFLLLVIAERPKLEHHHHHH | soluble
MTVPDAKRLKDLELENSRLKKLLAESLLDIGALKVVTRGKGEPGSGAGGQEMQAQTDISERRACQLFRLSRSVLCHQPRTSVQNTELQAQLVELARASALWLSPPAHSAAACWCADQLQADLPAILSRRLDGEAAEAPPQGRGGVRMPEPAERTELGLVDGFRLRRAQHWATDQMPDGGR | not soluble
